Measured values reported in patent US20180002403A1 (CRESCENDO BIOLOGICS, published 2018).
Numbering of substitutions follows the chain as printed.

B1: clone 1.10 VH (VHH)
VHH: VQLVESGGGLVQPGGSLRLSCAASGFTFSSYRMYWVRQAPGKGLEWVASIEQDGSEEYYVDSVKGRFTISRDNAKKSLFLQMNSLRAEDTAVYYCAKGEILPLYFDYWGQGTLVTVSS
notes: Optimized variant of clone 1.1 from the recombination library; human VH single domain; also called optimized VH clone 1.10
B2: clone 2.2 VH (VHH)
VHH: QVQLVQSGAEVKKPGASVKVSCKASGYPFTSYDINWVRQATGRSLEWMGWMNPTNGNTVYAQKFQDRVTMTRNTSISTAYMELSSLRSEDTAVYFCARGRRDDWKNNYWGQGTLVTVSS
notes: Optimized variant of clone 2.1 from the recombination library; human VH single domain; also called optimized VH 2.2
B3: clone 1.1 VH (VHH)
VHH: EVQLVESGGGLVQPGGSLRLSCAASGFTFSSYSMYWVRQAPGKGLEWVANIKQDGSEKYYVDSVKGRFTISRDNAKNSLFLQMNSLRAEDTAVYYCAKGEILPLHFDYWGQGTLVTVSS
notes: Human VH single domain (no light chain) from a Tg/TKO mouse, lead raised against IL-17A; It was cloned in phagemid pUCG3; also called VH 1.1; parent VH 1.1
B4: clone 1.6 VH (VHH)
VHH: B3 VHH with N50E, K58Q, F80Y, H105Y
notes: Optimized variant of clone 1.1 from the recombination library; human VH single domain; also called optimized VH clone 1.6

Assays:
[1] = target: T1, Recombinant human IL-17A (Peprotech AF-200-17) (human, UniProt Q16552 24-155); experiment: BIAcore T200, single-cycle kinetics, IL-17A amine-coupled to CM5 chip, 1:1 model
T1 construct: Amine-coupled to a CM5 chip (100 RU) for BIAcore; also called recombinant IL-17A
Procedure: (§1) Recombinant IL-17A (Peprotech AF-200-17) was diluted to 1 μg/ml in acetate buffer, pH 5.5 (BIAcore, cat# BR-100-52) and coupled to a CM5 Series S chip (cat # BR-1006-68) using amine-coupling chemistry (NHS-EDC amine-coupling kit, cat # BR-1000-50) and the BIAcore immobilization Wizard software. In this way 100RU of IL-17A was immobilised plus a blank surface (no IL-17A) was also prepared for reference subtraction. For IL-17RA, first a protein G chip was prepared by diluting protein G to 20 μg/ml in acetate buffer, pH 4 (BIAcore, cat# BR-100-49) and then coupled 1200 RU a CM5 Series S chip using amine coupling chemistry. This surface was then used to capture IL-17RA Fc fusion protein from solution: IL-17RA at 10 μg/ml in HBS injected for 10 seconds at 30 μl/min flow rate would capture approximately 100-150RU of IL-17RA onto the protein G surface.
(§2) Binding kinetics of optimized clone 1.1 (anti-IL-17A) and clone 2.1 (anti-IL-17RA) VH were determined by single-cycle kinetics. […] VH binding kinetics were then determined from the (blank subtracted) sensorgram traces using 1:1 binding models and BIAevaluation software.

[2] = target: IL-17RA Fc fusion protein (human, UniProt Q96F46 33-320, limits assumed); experiment: BIAcore T200, single-cycle kinetics, IL-17RA Fc fusion captured on protein G chip, 1:1 model
Procedure: as §1, §2

[3] = target: T1, Recombinant human IL-17A (Peprotech …); experiment: BIAcore T200, single-cycle kinetics, IL-17A amine-coupled to CM5 chip
Procedure: Binding kinetics of VH antibodies were measured on a BIAcore T200 instrument. Target (either recombinant IL-17A or IL-17RA) was diluted to 1 μg/ml in acetate buffer, pH 5.5 (BIAcore, cat# BR-100-52) and coupled to a CM5 Series S chip (cat # BR-1006-68) using amine-coupling chemistry (NHS-EDC amine-coupling kit, cat # BR-1000-50) and the BIAcore immobilization Wizard software. In this way 100RU of target was immobilised plus a blank surface (no target) was also prepared for reference subtraction.
Binding kinetics of VH antibodies were determined by single-cycle kinetics. VH antibodies were prepared in dilution series (typically 1:3 dilution series starting with 100 nM VH at the highest concentration), and then injected over the antigen-coated surfaces and also a blank surface, starting with the lowest concentration of VH and then working progressively up to the highest concentration. VH binding kinetics were then determined from the (blank subtracted) sensorgram traces using 1:1 binding models and BIAevaluation software.

T1 sequence (Q16552 24-155 limits assumed): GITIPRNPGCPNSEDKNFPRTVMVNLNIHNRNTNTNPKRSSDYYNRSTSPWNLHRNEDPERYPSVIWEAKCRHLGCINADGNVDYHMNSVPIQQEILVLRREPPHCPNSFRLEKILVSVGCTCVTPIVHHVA

Binder	fold improvement in affinity over parent clone 1.1 [1]	other results
B1	≤ 10 fold	–
B2	–	fold improvement in affinity over parent clone 2.1 [2]: 5 fold
B3	–	binding result [3]: binds
B4	≤ 10 fold	–
